In US20110243955A1 (FUSION ANTIBODIES, published 2011):

Legend:
[1] = molecular target: human cathepsin B (recombinant) (human, UniProt P07858 80-333); assay: western blot of recombinant cathepsins
Protocol: (§1) FIG. 15 MAb1 specifically binds Cat S on western blot. The antibody was used to probe against human cathepsin B, L, S and K (100 ng each).
(§2) Western blots were performed as described before to show specificity of the antibody binding to Cat S and not to CatB, L or K. Briefly, 100 ng of recombinant Cat S, K, L and B were loaded onto a SDS-PAGE gel, then transferred onto Hybond-C Extra nitrocellulose membrane (Amersham. Biosciences). The membrane was blocked by incubation in PBS/5% marvel for 1 hr at room temperature, after which it was rinsed briefly in PBS. The monoclonal antibodies were used at a 1:500 dilution in PBS and incubated on the membrane overnight at 4° C. while gently rocking. The blot was then rinsed three times with PBS/1% marvel and 0.1% Tween-20 and then incubated with the goat anti-mouse HRP conjugated secondary antibody at a 1:3000 dilution for 1 hr at room temperature while shaking. The blot was then rinsed three times with the PBS/1% marvel and 0.1% Tween-20 solution, followed by a short rinse in PBS. The blot was incubated with ECL plus substrate (Amersham Biosciences) for 5 mins at room temperature before development using Kodak photographic film under safe light conditions (FIG. 15).

[2] = molecular target: T1, human cathepsin L (recombinant) (human, UniProt P07711 114-333, limits assumed); assay: western blot of recombinant cathepsins
T1 construct: Called 'purified CatL' in the activity assay; also called CatL; Cat L
T1 sequence (P07711 114-333 limits assumed): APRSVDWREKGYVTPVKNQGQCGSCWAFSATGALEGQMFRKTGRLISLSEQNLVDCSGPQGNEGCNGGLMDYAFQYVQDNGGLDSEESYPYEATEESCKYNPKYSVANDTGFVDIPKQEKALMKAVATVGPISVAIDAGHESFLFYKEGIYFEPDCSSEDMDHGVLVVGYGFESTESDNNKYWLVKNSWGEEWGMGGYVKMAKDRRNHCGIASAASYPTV
Protocol: as §1, §2

[3] = molecular target: T2, human cathepsin K (recombinant) (human, UniProt P43235 115-329, limits assumed); assay: western blot of recombinant cathepsins
T2 construct: Called 'purified CatK' in the activity assay; also called CatK; Cat K
T2 sequence (looked up): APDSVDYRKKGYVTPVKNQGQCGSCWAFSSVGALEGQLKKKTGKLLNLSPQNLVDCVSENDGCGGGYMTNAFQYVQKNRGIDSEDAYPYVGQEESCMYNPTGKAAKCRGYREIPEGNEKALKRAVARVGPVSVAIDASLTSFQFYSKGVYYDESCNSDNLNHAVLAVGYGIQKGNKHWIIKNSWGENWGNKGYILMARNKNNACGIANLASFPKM
Protocol: as §1, §2

[4] = molecular target: T3, recombinant human Cat S (Calbiochem) (human, UniProt P25774 115-331, limits assumed); assay: fluorimetric enzyme assay with Cbz-Val-Val-Arg-AMC; progress curves of a slow-binding inhibitor fitted by non-linear regression (Morrison and Walsh, GraFit)
T3 construct: Bought enzyme used in the fluorimetric activity assays; also called cathepsin S
T3 sequence (P25774 115-331 limits assumed): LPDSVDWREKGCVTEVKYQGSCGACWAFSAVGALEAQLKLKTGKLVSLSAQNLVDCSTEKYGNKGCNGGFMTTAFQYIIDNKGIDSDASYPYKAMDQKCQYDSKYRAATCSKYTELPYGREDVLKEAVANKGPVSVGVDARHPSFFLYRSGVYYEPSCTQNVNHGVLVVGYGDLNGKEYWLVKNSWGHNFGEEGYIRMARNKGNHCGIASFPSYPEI
Protocol: FIG. 12. Quantification of inhibitory activity of Cat S MAb1 (Mab 1E11). Rates from the progress curves of (Mab 1E11) [FIG. 11], which were indicative of a slow binding inhibitor, were fitted by non-linear regression using GraFit software according to the method of Morrison and Walsh, 1988.
The inhibitory effect of the monoclonal antibodies were determined by a flurometric assay, using a Cat S synthetic substrate Z-Val-Val-Arg-AMC (Bachem) and recombinant human Cat S (Calbiochem). The recombinant Cat S enzyme was activated at 37° C. in sodium acetate buffer (100 mM sodium acetate, 1 mM EDTA, 0.1% Brij90, pH 5.5), and 2 mM dithiothreitol (DTT) for 30 mins prior to assay. Assays were carried out using 190 μl of sodium acetate/DTT buffer (90:1), 1 μl of activated Cat S, 12.5 μl of 10 mM Cbz-Val-Val-Arg-AMC substrate and 50 μl of non-purified monoclonal antibody supernatant. Fluorescence was measured at 375 nm excitation and 460 nm emission wavelengths every 5 mins for 4 hrs (FIG. 8). […]
The purified monoclonal antibodies were analysed by flurometric assay for quantification of their ability to inhibit the activity of Cat S. The principles of this assay are the same as that previously used. Fluorescence was measured at 375 nm excitation and 460 nm emission wavelengths every minute for 1 hr. […]

B1: Cat S inhibitory monoclonal antibody Mab 1E11 (antibody, V domains shown)
VH: VQLQESGGVLVKPGGSLKLSCAASGFAFSSYDMSWVRQTPEKRLEWVAYITTGGVNTYYPDTVKGRFTISRDNAKNTLYLQMSSLKSEDTAMYYCARHSYFDYWGQGTTVTVSS
VL: DVLMTQTPLSLPVSLGDQASISCRSSQSLVHSNGNTYLHWYLQKPGQSPKLLIYKVSNRFSGVPDRFSGSGSGTDFTLKISRVEAEDLGVYFCSQTTHVPPTFGSGTKLEIKR
notes: Whole mouse monoclonal antibody from a hybridoma (BALB/C mice), purified from supernatant; also called Cat S MAb1
binding result [1]: no binding
binding result [2]: no binding
binding result [3]: no binding
Ki [4]: 0.533 µM
